# Test results: the DeepSol protein solubility set
# Assay: soluble on expression in E. coli; label from the status in PepcDB or PDB records
row,Sequence,soluble on expression in E. coli
1,MSLRSVVSFNEGWSFHEGFGQRLLENFDAAKPVSLPHTAVELPFNYFDEKSYQRAFTYQKVLRWLPEFEGREVSLVFDAAMADSVVYLNGEEITAHKDGYTPFEARLTGKLLKGENLVTVKIDGSENPAIPPFGGRIDYLTYAGIYRDVWLKVTDPVSIRNLKIETADVLAPHKSASIRVDLANPEGRSFSATLTAALKQADGTVIATAATETIGNRTTLSLGGLTGITLWDITNPTLYEVTVELRTEHGSDRLSTRFGFRTAEFTPEGFLLNGKPLKLRGLNRHQAFPYVGYAAGRSAQERDADIMKSVLKCNIVRTSHYPQSKWFLDRCDAIGLLVFEEIPGWQHIGDADWQKESIENVRRMIERDWNHPSIIIWGVRINESQDSHDFYAETNRLARELDSTRQTGGVRYITESELLEDVYTMNDFILGNEELPGANRPRTVLRGQQENTGLSRKVPYLITEFNGHMHPTKIYDQEQRQAEHVRRHLEVLNAAYGDPDISGAIGWCMFDYNTHKDFGSGDRVCYHGVMDMFREPKFAAYAYISQCEPSEEIVMKPVTFWARGERNIGGVLPLIILTNCDEVELQYGALSKRVGPDRENYPHLPHPPVVLDHRHFTADELGTWGLEWIDGALTGFIAGEAVVSLNLAADPLPTTLEMVADSSTLKTRERDSTRVIIRALDQCGQRLPFMNDSISLKVHGPARIVGPTNVPLQGGTSGFWLEATGLVGEITVEAVSSRFAPVTLNVTAVAEGHHHHHH,soluble
2,MSLRTSASLAGSLAYGMADFLGRSEHLSIIDMIVPRMRQDNVETVVGMFDGQPSSTGGSRVAKFLHENFLHTFSAELKRLRRDEQETPLDAFRRTFLTLNRNMAFACYKSIDQDVRLFQEDSSDQKKVRLNKEDLQSGGVATVLYLNNTDLYAANIGDAQAILVKSDGSMRYLTRNHDPAEAGERARIRAAGGFVSRNGRLNDYLPVSRSFGYFNLMPAVIAAPHTMHVSLTEQDEMIILASKELWDYVTPDLVVDVTRAERRDLMVAAQKIRDLALSFGANNKLMVMILGVGDLREGHHHHHH,soluble
3,MSLRVLGIETSCDETGIAIYDDEKGLLANQLYSQVKLHADYGGVVPELASRDHVRKTVPLIQAALKESGLTAKDIDAVAYTAGPGLVGALLVGATVGRSLAFAWDVPAIPVHHMEGHLLAPMLEDNPPEFPFVALLVCGGHTQLISVTGIGQYELLGESIDDAAGEAFDKTAKLLGLDYPGGPLLSKMAAQGTAGRFVFPRPMTDRPGLDFSFSGLKTFAANTIRDNGTDDQTRADIARAFEDAVVDTLMIKCKRALDQTGFKRLVMAGGVSANRTLRAKLAEMMKKRRGEVFYARPEFCTDNGAMIAYAGMVRFKAGATADLGVSVRPRWPLAELPAEGHHHHHH,soluble
4,MSLRVRQIDRREWLLAQTATECQRHGREATLEYPTRQGMWVRLSDAEKRWSAWIKPGDWLEHVSPALAGAAVSAGAEHLVVPWLAATERPFELPVPHLSCRRLCVENPVPGSALPEGKLLHIMSDRGGLWFEHLPELPAVGGGRPKMLRWPLRFVIGSSDTQRSLLGRIGIGDVLLIRTSRAEVYCYAKKLGHFNRVEGGIIVETLDIQHIEEENNTTETAETLPGLNQLPVKLEFVLYRKNVTLAELEAMGQQQLLSLPTNAELNVEIMANGVLLGNGELVQMNDTLGVEIHEWLSESGNGE,not soluble
5,MSLRVTLTDVARAAGVSKSTVSLVLNDSSLIKKETQQKVQQAIEQLGYVYNRFAANLRSQKSLTIGVVIDDLINPFFAEFTMGLEMTLAEHGFITVMSNTSQRSDRQKQVLDTLLEHHVAGIVLCPVNSTSEADLQRYANSSTPLLITMRPLDWQQLPVDYVGVDSHAGVREATEYLIQQGHRDIVFIGGLTHHMRYQGYLEAMNHHGLQPWSTDAFSLRAEPTQANGYQLMQQLLDMPSPPTAVICYNDLMAFGAESALGERGLFAGEDISLIGNDGVAACAYSNPPLTTIAVEPLALGKQAAQQILRRIAQPDAPLSHYIYRPTLQIRASTGKEGHHHHHH,soluble
6,MSLRYIVALTGGIGSGKSTVANAFADLGINVIDADIIARQVVEPGAPALHAIADHFGANMIAADGTLQRRALRERIFANPEEKNWLNALLHPLIQQETQHQIQQATSPYVLWVVPLLVENSLYKKANRVLVVDVSPETQLKRTMQRDDVTREHVEQILAAQATREARLAVADDVIDNNGAPDAIASDVARLHAHYLQLASQFVSQEKPEGGSHHHHHH,soluble
7,MSLRYIYFFGRKINLSERDKIFRDITSKYKCIHDLRCAFDHTEISSFENIDFNIIDDYLFYIELNEKSYTFNDGISLMVQERFWEAHEALEQLWRHSNGLEKSTLRFIIMVCTAFVHLQRGHYSIYHEVMENALKIDTYNEYKCINIKSLKSEIRSGIFNTYFFIKSLKEGHHHHHH,soluble
8,MSLSAELLLNVTPSETRVAMIEGGILQEIHIEREAKRGIVGNIYKGKVSRVLPGMQAAFVDIGLDKAAFLHASDIVPHTECVAESEKQQFQVRDISELVRQGQDIVVQVVKDPLGTKGARLTTDITLPSRYLVFMPGASHVGVSQRIESEAERERLKKIVSHYCDEHGGFIIRTAAEGANEKELTQDAAFLKRLWSKVIERRSKYKNRSMLYGELGLAQRILRDFVGTELTKILIDSRQEFENLKEFTSEYVPELTAKLELYHGDKPIFDMYDTENEIQRSLERKVELKSGGYLIIDQTEAMTTIDINTGAFVGRRNLEETIFNTNIEATQAIARQLRLRNLGGIIIIDFIDMASDEHRKRVLTSLETALMKDRVKTNINGFTQLGLVEMTRKRTRESIEHVLCSTCPTCEGRGSVKTVETVCFEILREITRVNRAYDADKFVVYASPAVADTLQGEESHALAELEVFIGKEVRIQAEPLYNQEQFDVVMMEGGSHHHHHH,soluble
9,MSLSARAEDINNIENKTIGHGRTSYNKSVSGRVENIRLSTESVDYVVLGSGDTFTFNGIVGERTKERGYQVASVIMDGDFTDGLGGGICQTSTTLYNAVLDAGLTVLERHPHSLPVGYVEEGMDAMVSWGSADLRFRNDFDYPVVIRGGVDKEKGEVWFDIREGHHHHHH,soluble
10,MSLSDNDLQRRILDAVDAGFDAQLATTRDFVAIPSTRGAEGPCQDMIGDLLRQRGYEVDDWHIDLDDLKDLRGYGPIEHDFSKARTVVGTYRPSTNAGRSLILQGHCDVVPAGPLEMWDTPPFSPVIKQGRMYGRGACDMKSGTIGALYALDAIKAAGLRPTGRIHFQSVIEEESTGVGALSTLQRGYRADACFIPEPTGGKMVRSQVGVIWFRLKVRGYPVHVATAGTGSNAITAAYHLIDALGKLEEEWNRRAASDPHFKTLAHPINFNPGIIKGGDWASSVPAWCDVDCRIAILPGWSVADHQAEILACVSAAARDHRFLSNNPPQVEWSGFLSEGYELKNAAEPEAAFGKAYQAVYGSEVEDLVFTALTDTRFYGLNYNIPSLCFGASGEAMHGFNEYIDLESLRQSTKATALFIAEWCGVEPAEGHHHHHH,soluble
11,MSLSDNIYSVSQLNSAARQMLEGNFCQIWLTGEISNFTQPVSGHWYLTLKDENAQVRCAMFRMKNLRVAFRPQNGMQVLVRANVSLYEPRGDYQLIIDSMHPAGEGLLQQQFEALKMKLAAEGLFAQNLKKTLPHFSKAVGIITSSTGAALQDILHILARRDPSLKVVIYPTAVQGKEATAEIVQMIELANARQEVDVLIVGRGGGSLEDLWCFNEEEVARAIFRSTLPIISAVGHETDVTIADFVADLRAPTPSAAAELVSRNQDELLQQLRHQQQRLDMAFDRLFTRKSQRLKQLALRLQNQHPQNQLRAQQAKNEQLTHRLQLAILRQFENTQQKFTALSVRLKQNPLPYRIQRYQQGLEQLKVRLNFCVNRQVTERQNKLATLCGKLDGLSPLKVLARGYSIAENPQGKAIVSVKDVNQGDFITTQVADGKIVSKVLEGHHHHHH,not soluble
12,MSLSDQTLQDILRYLTEETGLAPFQVANTVELLREGGTVPFIARYRKERTGELDEVGIRGIEERLAYFTELEERKLTVLKSIEEQGKLTPELADRIRTSRQKTEVEDLYLPYKPKRRTKATIARERGLEPLADLMAAQELTAGTPEEATLPFVDPAGEVPDAAAALEGAGHILAERLADDADARAFVRRLTADQGIFCSRVAADRKGAVTKFEMYYDHREPLKSVPSHRMLAMRRGEKEEVLVLTIEAPTEEILAGLRARIAGRASIFRQLLEGAAEDAYKRLIAPSIEVELRLEAKQRADEAAITVFAQNLRNLLLAPPAGGKRVLGVDPGLRTGSKLAAVDGTGRFLEHVTIYPHAGGEGKVAAAKREFLRLVECHGIEMVAVGNGTAGREMEQFAKETLAEGGKRIPVVMVSEAGASVYSASEIAREEFPDLDLTVRGAISIARRLQDPLAELVKIDPKSIGVGQYQHDVDQRALKKSLDAVVESCVNYVGVDLNTASWALLSYVSGVGPSLARAIVRHRDEHGPFPARRALMKVPRFGDKAFEQAAGFLRIRGGEHPLDATAVHPERYPVVEAMATDLGVSLSQLAADPALPARIDLKRYVTDAVGLPTLRDIMEELKKPGRDPREEFRTAAFRDDVTEIGDLKEGMVLQGVVTNVTAFGAFVDVGVHQDGLVHVSHLSVKFVKDPAEAVRVGQVVQVKVLSVDVQRKRISLSIREAAPGGAPRSTEGHHHHHH,soluble
13,MSLSELGLGDPERPLDAVLHGFSISQSETIGRRTEMEDVTMIIKDFASYRRGRSSYRGAKCHESGHKEILLGIFDGHGGTECSSMVGDLFPVAFADALNSVLYAAQLNHAYDLPDSVWEPLFVGVFLRLDDTLRLKNIQSGSTAAICFILDNLVVSANCGDSRTVLTRDEAMIKSFGCDSMLYKVEGPTRSSRINEISSGSLLQLEQSQTAQLSGHAIINSARYFMNPEETSEEALVSAKRRGKRVEGLSLRLSKDHKPDDPTETRRIEASGGYVHGGRVMGTLSVCRSFGDFVYKPSISVVPFVSVYHFRTYDAWIVIACDGCWDSISDIDAAMLLSTCLSSQAGALKLRDEAYRLNSQDNISVITVRLYLEEGHHHHHH,soluble
14,MSLSELSVLSAETAISFHEMDLEILKESQKALREEAGGKEEVEETVENPNPIVFIAVDDQNLPNGEEEDSFIFEKLQFRVKQVMENGTRRVYLSVQATTPAEWQLLVQLRIKTGCQSNILNVVDKDVYKFDSFSYPLNVEIQNSDVKFLKFEMRVLNLMYLDLPTFEEGDEVIEFDDGSRIRVHSNILSLLSDYLGKSEKEYASRTDCPAIKATCSEKEAFLELLYQAYPTRRPIFASFRRLTAGAVGYKCDNLIYQLSKHLIDYNYRPMTFLQRFQAAIENRLEPAISELAFRAALDGTWNQMIQSGFEPENFCGRQVYTKIVCPAILLARNAKPDATTLKKPENNLKFIELEEGDTTKSAILFRGTIFYINSGILAAHGKEMLCIGQNGEYIARYTAEFHRECARGDLIPGEVLVQLLTYMHPMGEVPHPDMIRACIVFAFDHGWNIVKENLENEFEPPITPDEYMSQLMFGDKFDLKNLLRVNIQRAESSCRELAEVLERHGKLKILKDRTHEGIMDRMCSGWGLNPMVNRLSTRFPTTFHHRTVNLQRGKAVVVGEGRAVDTLNSLASDHAFGEPTELIVVD,not soluble
15,MSLSENIAAYVGLDVHKETLAVAIAAPERLGEVRYYGTINNEAQAVRRLFQKLQGLYGNILSCYEAGPCGFGLYHQLTAMNIKCQVIAPSRIPKSPTDRIKNDHRDAISLARLLRAGELTPVWIPDLTHEAMRDLIRARAAAKRDSRVARQRILSMLLRTDKHYAGKHWTGKHRTWLANQSFSQPSQQIAFQHYCQSLEQIEDRILQLDQEISRLLPEWSLCNLVCQLQALKGVGQLIAITLVAELGDFSRFSNPKQLMAFLGLVPGEYSSGNSIRPRGITKVGNSELRRLLYEAAWSYRTPAKVGAWLIYYRPDSVTQYSKDIAWKAQQRLCSRYRSLTAKGKKSQVAITAVARELTGFMWDIALAAQSSFSQQKQNEGHHHHHH,soluble
